The numbers were not newly measured in article PMC6021539, which cites them from elsewhere.

The data set has as its target Adrenomedullin (Homo sapiens) (UniProt P35318).

On to CXCR7 (from UniProt P25106), for which the Kd (commonly the constant that tells how readily two partners part at equilibrium) is 190 nM.
